Target: UPF1-Hel (human)

extent of linear RNA substrate unwound by UPF1-Hel (fluorescence-based nucleic acid unwinding assay) with SLBPfl at equimolar amount to 3-fold molar excess; further decrease at 3-fold excess: 66%
Substance: full-length SLBP (SLBPfl) (from UniProt Q14493 1-270) (natural protein)

Source: publication PMC12775136
